Laboratory results from paper PMC4161306, “Regulation of Arabidopsis Flowering by the Histone Mark Readers MRG1/2 via Interaction with CONSTANS to Modulate FT Expression” (PLoS Genetics, 2014).
Where no end group is shown, it is not given here. Me3 = trimethyl-lysine; Me2 = dimethyl-lysine

T1: MRG2 chromodomain (residues 41-123) (Arabidopsis thaliana, UniProt Q4V3E2 41-123)
T1 construct: Arabidopsis thaliana MRG2 chromodomain, residues 41-123; Construct of the ITC; source: cloned into pET28-SMT3, purified, tag removed
T1 sequence (looked up): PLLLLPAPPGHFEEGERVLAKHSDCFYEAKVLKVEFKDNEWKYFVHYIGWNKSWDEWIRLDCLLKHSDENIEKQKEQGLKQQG

T2: GST-fused CONSTANS (CO) (Arabidopsis thaliana, UniProt Q39057 1-373)
T2 construct: Arabidopsis transcription factor CONSTANS (CO); CO cDNA amplified with primers CO-1/CO-2; also called GST-CO; source: E. coli, pGEX-4T-1, purified
T2 sequence (looked up): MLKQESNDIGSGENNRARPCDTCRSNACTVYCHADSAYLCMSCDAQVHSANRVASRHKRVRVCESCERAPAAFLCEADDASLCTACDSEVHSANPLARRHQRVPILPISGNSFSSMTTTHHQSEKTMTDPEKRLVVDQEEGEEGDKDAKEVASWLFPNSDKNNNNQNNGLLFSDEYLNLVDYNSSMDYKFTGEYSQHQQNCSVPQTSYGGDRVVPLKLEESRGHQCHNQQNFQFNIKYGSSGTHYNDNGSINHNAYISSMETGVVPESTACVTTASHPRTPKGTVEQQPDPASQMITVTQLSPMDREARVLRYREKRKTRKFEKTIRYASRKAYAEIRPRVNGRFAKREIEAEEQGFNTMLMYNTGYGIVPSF


Columns and labels:
[1] = target: T1, MRG2 chromodomain (residues 41-123); assay: ITC; 25 C, MicroCal iTC200; 50 mM Tris pH 8.0, 100 mM NaCl; 0.2-0.4 mM protein in the cell, 2-4 mM peptide injected in 2 ul aliquots (20 injections); one-site model; conditions: both partners purified
[2] = target: T2, GST-fused CONSTANS (CO); assay: pull-down; GST-fused CO (or GST alone) with His-tagged MRG2, MRG2C or MRG2N, purified from E. coli; protocol of ref. 51; conditions: both partners purified

Binder | Kd [1] [mM] | binding result [2]
ARTK(Me2)QTARK [H3K4me2 peptide (residues 1-9)] | 2.4 | 
KAARK(Me3)SAPA [H3K27me3 peptide (residues 23-31)] | 2.5 | 
His-tagged MRG2C (MRG domain of MRG2) (domain or fragment, Arabidopsis thaliana, UniProt Q4V3E2 148-327, looked up, Arabidopsis MRG2; MRG2C is cDNA 442-984, which are nucleotides, i.e. from residue 148 to the C-terminus; holds the MRG domain; source: E. coli, pET-30a, purified (His tag)) RKQDSVDTEKNVLPSDNLLSFNIPPALRKQLLDDFEFVTQMQKLVQLPRSPNVDGILKKYIDSQMKKHGRVTDSLEEILKGLRCYFDKALPVMLLYNNERKQYEESVSGGVSPSTVYGAEHLLRLFVKLPELLVHVNMAEETLKELQDNFVDILRFLRKNQSVLFVSTYKAVEEMEKKEG |  | binds
KQTARK(Me3)STGG [H3K9me3 peptide (residues 4-13)] | 1.2 | 
His-tagged MRG2 (natural protein, Arabidopsis thaliana, UniProt Q4V3E2 1-327, looked up, Arabidopsis MRG2 cDNA amplified with primers MRG2-1/MRG2-10; MRG2-1 is the forward primer of MRG2N (cDNA from nucleotide 1) and MRG2-10 the reverse primer of MRG2C (cDNA to nucleotide 984); also called MRG2 tagged with multiple His residues; His-MRG2; source: E. coli, pET-30a, purified (His tag)) MGSPNAAAETDLTTDDFIGDTRRDSGSDTETNTDCDGEDLPLLLLPAPPGHFEEGERVLAKHSDCFYEAKVLKVEFKDNEWKYFVHYIGWNKSWDEWIRLDCLLKHSDENIEKQKEQGLKQQGIKSAMAWKVSKMKPRSPNVARGRKRKQDSVDTEKNVLPSDNLLSFNIPPALRKQLLDDFEFVTQMQKLVQLPRSPNVDGILKKYIDSQMKKHGRVTDSLEEILKGLRCYFDKALPVMLLYNNERKQYEESVSGGVSPSTVYGAEHLLRLFVKLPELLVHVNMAEETLKELQDNFVDILRFLRKNQSVLFVSTYKAVEEMEKKEG |  | binds
